Measured values reported in publication PMC6733591.

T1: ScRNase PNK (Las1-Grc3 complex) (Saccharomyces cerevisiae, UniProt P36146;Q07845 1-502;1-632)
T1 sequence 1: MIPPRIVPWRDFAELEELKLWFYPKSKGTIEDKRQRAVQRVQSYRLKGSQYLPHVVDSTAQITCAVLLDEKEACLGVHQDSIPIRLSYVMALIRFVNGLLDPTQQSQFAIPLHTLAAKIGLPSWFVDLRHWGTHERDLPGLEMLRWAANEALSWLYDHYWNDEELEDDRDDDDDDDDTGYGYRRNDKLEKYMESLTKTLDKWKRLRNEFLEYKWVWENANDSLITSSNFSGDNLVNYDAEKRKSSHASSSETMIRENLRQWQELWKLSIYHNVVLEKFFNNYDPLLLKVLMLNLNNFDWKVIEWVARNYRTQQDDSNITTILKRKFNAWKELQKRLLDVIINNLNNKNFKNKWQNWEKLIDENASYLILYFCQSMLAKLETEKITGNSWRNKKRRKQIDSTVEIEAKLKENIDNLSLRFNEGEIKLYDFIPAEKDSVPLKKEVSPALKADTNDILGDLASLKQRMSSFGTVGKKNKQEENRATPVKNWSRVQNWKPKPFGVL
T1 sequence 2: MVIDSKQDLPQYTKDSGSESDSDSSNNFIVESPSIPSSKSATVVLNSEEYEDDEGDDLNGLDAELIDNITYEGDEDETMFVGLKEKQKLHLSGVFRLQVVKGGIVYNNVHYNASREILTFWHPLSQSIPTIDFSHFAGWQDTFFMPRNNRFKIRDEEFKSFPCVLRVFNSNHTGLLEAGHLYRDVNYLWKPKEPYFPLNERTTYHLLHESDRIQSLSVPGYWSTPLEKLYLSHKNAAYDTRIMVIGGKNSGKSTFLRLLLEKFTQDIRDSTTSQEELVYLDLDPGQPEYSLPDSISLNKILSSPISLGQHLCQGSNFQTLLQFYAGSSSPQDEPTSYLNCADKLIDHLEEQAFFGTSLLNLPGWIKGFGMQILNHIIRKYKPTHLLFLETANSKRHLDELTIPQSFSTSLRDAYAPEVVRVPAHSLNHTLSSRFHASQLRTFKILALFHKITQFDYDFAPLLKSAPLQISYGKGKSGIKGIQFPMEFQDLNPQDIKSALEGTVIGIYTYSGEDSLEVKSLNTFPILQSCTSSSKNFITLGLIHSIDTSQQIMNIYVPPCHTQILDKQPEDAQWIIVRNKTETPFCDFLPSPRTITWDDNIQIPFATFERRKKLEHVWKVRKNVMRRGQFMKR


Legend:
[1] = biological target: Chaetomium thermophilum Las1 endoribonuclease (nuclease component of RNase PNK) (Chaetomium thermophilum); assay: cryo-EM structure
[2] = biological target: T1, ScRNase PNK (Las1-Grc3 complex); assay: ITC

stoichiometry N [1] | Molecule | binding result [2]
2 | Chaetomium thermophilum Las1 endoribonuclease (nuclease component of RNase PNK) (enzyme) | 
 | SC-ITS2-cleaved-RNA (SC-ITS2-3-RNA annealed to SC-ITS2-5-RNA) (dsRNA) RNA 1: GUCGUUUUA RNA 2: GGUUUUACCAACUGCGGC | binds
 | ACGUACGCGGAAUACUUCGAA (ssRNA) [SS-RNA] | binds
